Source: patent publication US20170015742A1 (published 2017)

T1: Recombinant human FcγRIIb, 6xHis-tagged (human, UniProt P31994 46-217, limits assumed)
T1 construct: Captured through its 6xHis tag; also called huFcRIIb
T1 sequence: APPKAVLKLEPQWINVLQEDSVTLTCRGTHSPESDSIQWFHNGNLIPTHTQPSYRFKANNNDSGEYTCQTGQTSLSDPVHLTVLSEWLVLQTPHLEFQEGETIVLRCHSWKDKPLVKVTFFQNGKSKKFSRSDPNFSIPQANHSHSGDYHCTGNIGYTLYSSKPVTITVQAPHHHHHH

T2: Recombinant human FcγRIIa H131, 6xHis-tagged (human, UniProt P12318 36-218, limits assumed)
T2 construct: Captured through its 6xHis tag
T2 sequence: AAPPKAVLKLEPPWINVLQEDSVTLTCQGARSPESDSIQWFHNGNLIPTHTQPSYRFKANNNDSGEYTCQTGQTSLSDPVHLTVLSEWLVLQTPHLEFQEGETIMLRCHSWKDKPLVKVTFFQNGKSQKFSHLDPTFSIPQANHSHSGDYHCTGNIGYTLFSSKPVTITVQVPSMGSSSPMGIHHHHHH

T3: Recombinant human FcγRIIa R131, 6xHis-tagged (human, UniProt P12318 36-218, limits assumed)
T3 construct: Captured through its 6xHis tag
T3 sequence: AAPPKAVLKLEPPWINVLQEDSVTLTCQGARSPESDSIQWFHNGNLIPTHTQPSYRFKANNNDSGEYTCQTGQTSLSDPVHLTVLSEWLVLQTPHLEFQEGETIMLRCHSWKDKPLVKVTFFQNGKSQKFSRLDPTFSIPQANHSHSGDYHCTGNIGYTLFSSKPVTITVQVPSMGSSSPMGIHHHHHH

T4: Recombinant rat FcRn (rat, UniProt P13599 23-298, limits assumed)
T4 construct: FcRn is normally a heterodimer with beta-2-microglobulin
T4 sequence (looked up) 1: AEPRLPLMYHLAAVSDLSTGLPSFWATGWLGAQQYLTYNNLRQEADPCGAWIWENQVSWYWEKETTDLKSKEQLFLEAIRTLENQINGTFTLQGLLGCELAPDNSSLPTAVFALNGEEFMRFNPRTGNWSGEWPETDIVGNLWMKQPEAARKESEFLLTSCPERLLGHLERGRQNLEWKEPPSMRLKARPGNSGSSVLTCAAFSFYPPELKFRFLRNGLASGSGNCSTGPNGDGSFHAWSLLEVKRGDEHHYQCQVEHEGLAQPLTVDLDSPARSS
T4 sequence (looked up) 2: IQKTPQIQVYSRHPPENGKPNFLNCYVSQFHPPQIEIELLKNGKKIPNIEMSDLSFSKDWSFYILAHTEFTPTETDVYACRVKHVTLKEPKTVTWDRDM


What was measured:
[1] = molecular target: T1, Recombinant human FcγRIIb, 6xHis-tagged; test: Biacore SPR; His-tagged human FcγR captured on anti-6xHis antibody, DVD-Ig injected
Procedure: (§1) A CM5 chip (GE Healthcare, Pittsburgh, Pa.) with mouse anti-6×His antibodies (“6×His” disclosed as SEQ ID NO: 405) that were directly immobilized on the chip via amine coupling according to the GE Healthcare protocol to the density of 10000RU (all flow cells) was used for experiments. Human FcγRs were captured on flow cells 2, 3 and 4. Flow cell 1 was used as a reference surface. HBS-EP+ was used as the running buffer. […] The chip surfaces were regenerated with an injection of 10 mM glycine pH 1.5 at a flow rate of 100 μL/minute over all four flow cells after each cycle.

[2] = molecular target: T2, Recombinant human FcγRIIa H131, …; test: as above
Procedure: as §1

[3] = molecular target: T3, Recombinant human FcγRIIa R131, …; test: as above
Procedure: as §1

[4] = molecular target: T5, Recombinant human FcγRIIIa F158, 6xHis-tagged (human, UniProt P08637 17-208, limits assumed); test: as above
T5 construct: Captured through its 6xHis tag
T5 sequence (P08637 other isoform, or with tags, fused parts or gaps limits assumed): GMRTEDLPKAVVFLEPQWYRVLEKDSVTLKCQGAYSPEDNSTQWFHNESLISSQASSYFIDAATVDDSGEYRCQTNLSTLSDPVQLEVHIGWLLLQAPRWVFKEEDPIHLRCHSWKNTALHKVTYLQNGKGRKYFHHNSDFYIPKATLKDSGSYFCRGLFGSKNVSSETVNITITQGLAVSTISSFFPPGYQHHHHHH
Procedure: as §1

Recombinant rat FcRn = molecular target: T4, Recombinant rat FcRn; test: Biacore SPR; DVD-Ig immobilised by amine coupling, recombinant FcRn injected; 1:1 binding fit
Procedure: Human, cynomolgus, mouse, rat and rabbit recombinant FcRns were injected over all the flow cells at a flow rate of 50 μL/minute for 1 minute at a concentrations range of from 2.7 to 6000 nM (three fold serial dilution), followed by a 2 minute dissociation time. The surfaces were regenerated with an injection of 10 mM HCl at 100 μL/minute for 2 seconds followed by an injection of HBS-EP+, pH 7.4, at a flow rate of 50 μL/minute for 30 seconds over all four flow cells. Samples were prepared and run in two running buffer systems, pH 6.0 MES-EP+, and pH […]. Recombinant human FcγRIIIa V158 and rat and mouse FcRn data were fitted to 1:1 kinetic model. Recombinant human FcγRIIa R131 and FcγRIIa H131, FcγRIIIa F158, and recombinant human, cynomolgus and rabbit FcRn binding data were fitted to a steady state affinity model. Biacore T200 Evaluation Software version 2.0 was used to fit all the data.

[5] = molecular target: T6, Recombinant human FcγRIIIa V158, 6xHis-tagged (human, UniProt P08637 17-208, limits assumed); test: Biacore SPR; His-tagged huFcγRIIIa 158V captured on anti-6xHis antibody, DVD-Ig injected; steady state fit
T6 construct: Captured through its 6xHis tag; also called huFcRIIIa 158V
T6 sequence (P08637 other isoform, or with tags, fused parts or gaps limits assumed): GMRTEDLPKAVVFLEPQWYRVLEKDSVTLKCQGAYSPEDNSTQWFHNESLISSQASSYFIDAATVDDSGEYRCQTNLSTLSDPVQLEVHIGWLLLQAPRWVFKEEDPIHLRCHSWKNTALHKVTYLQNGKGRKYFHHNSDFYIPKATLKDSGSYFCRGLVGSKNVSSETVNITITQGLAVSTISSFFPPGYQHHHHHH
Procedure: as §1
The binding of DVD-Ig molecules to FcRn from various species and the binding of DVD-Ig molecules to various FcγRs were characterized by Biacore using the method described in Example 1.2.

Row | binding result (Recombinant rat FcRn) | Kd [5] [µM] | Binder | binding result [1] | binding result [2] | binding result [3] | binding result [4]
1 | no binding (tested: FcRn 2.7 to 6000 nM) | 7.4 | 4G8.3-GS-9E8.4(g) (PR-1572102), anti-VEGF-A/anti-PDGF-BB DVD-Ig, hu IgG1/k L234A L235A H435A (bispecific antibody, also called 4G8.3-GS(9)-9E8.4 (g); hu VEGF 4G8.3-GS-hu PDGF 9E8.4 (germline) [hu IgG1/k]; LALA H435A) heavy: EVQLVQSGSELKKPGASVKVSCKASGYTFTNYGMYWVRQAPGQGLEWMGWINTETGKPTYADDFKGRFVFSLDTSVSTAYLQISSLKAEDTAVYYCARTNYYYRSYIFYFDYWGQGTMVTVSSGGGGSGGGGSEVTLRESGPALVKPTQTLTLTCTFSGFSLSTYGMGVGWIRQPPGKALEWLANIWWDDDKYYNPSLKNRLTISKDTSKNQVVLTMTNMDPVDTATYYCARIESIGTTYSFDYWGQGTMVTVSSASTKGPSVFPLAPSSKSTSGGTAALGCLVKDYFPEPVTVSWNSGALTSGVHTFPAVLQSSGLYSLSSVVTVPSSSLGTQTYICNVNHKPSNTKVDKKVEPKSCDKTHTCPPCPAPEAAGGPSVFLFPPKPKDTLMISRTPEVTCVVVDVSHEDPEVKFNWYVDGVEVHNAKTKPREEQYNSTYRVVSVLTVLHQDWLNGKEYKCKVSNKALPAPIEKTISKAKGQPREPQVYTLPPSREEMTKNQVSLTCLVKGFYPSDIAVEWESNGQPENNYKTTPPVLDSDGSFFLYSKLTVDKSRWQQGNVFSCSVMHEALHNAYTQKSLSLSPGK light: DTVLTQSPATLSLSPGERATLSCRASESVSTHMHWYQQKPGQAPRLLIYGASNLESGVPARFSGSGSGTDFTLTISSLEPEDFAVYFCQQSWNDPFTFGQGTKLEIKRGGSGGGGSGEFVLTQSPGTLSLSPGERATLSCERSSGDIGDSYVSWYQQKPGQAPRLVIYADDQRPSGIPDRFSGSGSGTDFTLTISRLEPEDFAVYYCQSYDINIDIVFGGGTKVEIKRTVAAPSVFIFPPSDEQLKSGTASVVCLLNNFYPREAKVQWKVDNALQSGNSQESVTEQDSKDSTYSLSSTLTLSKADYEKHKVYACEVTHQGLSSPVTKSFNRGEC | no binding (tested: DVD-Ig 31.25 to 4000 nM) | no binding (tested: DVD-Ig 31.25 to 4000 nM) | no binding (tested: DVD-Ig 31.25 to 4000 nM) | no binding (tested: DVD-Ig 31.25 to 4000 nM)
2 | no binding (tested: FcRn 2.7 to 6000 nM) | 16 | 4G8.3-GS-9E8.4 (PR-1569574), anti-VEGF-A/anti-PDGF-BB DVD-Ig, hu IgG1/k mut(234,235) H435A (bispecific antibody, also called hVEGF 4G8.3-GS-hPDGF 9E8.4 [hu IgG1/k] mut(234, 235) H435A) heavy: EVQLVQSGSELKKPGASVKVSCKASGYTFTNYGMYWVRQAPGQGLEWMGWINTETGKPTYADDFKGRFVFSLDTSVSTAYLQISSLKAEDTAVYYCARTNYYYRSYIFYFDYWGQGTMVTVSSGGGGSGGGGSEVTLRESGPALVKPTQTLTLTCTFSGFSLSTYGMGVGWIRQPPGKALEWLANIWWDDDKYYNPSLKNRLTISKDTSKNQVVLTMTNMDPVDTATYYCARIESIGTTYSFDYWGQGTMVTVSSASTKGPSVFPLAPSSKSTSGGTAALGCLVKDYFPEPVTVSWNSGALTSGVHTFPAVLQSSGLYSLSSVVTVPSSSLGTQTYICNVNHKPSNTKVDKKVEPKSCDKTHTCPPCPAPEAAGGPSVFLFPPKPKDTLMISRTPEVTCVVVDVSHEDPEVKFNWYVDGVEVHNAKTKPREEQYNSTYRVVSVLTVLHQDWLNGKEYKCKVSNKALPAPIEKTISKAKGQPREPQVYTLPPSREEMTKNQVSLTCLVKGFYPSDIAVEWESNGQPENNYKTTPPVLDSDGSFFLYSKLTVDKSRWQQGNVFSCSVMHEALHNAYTQKSLSLSPGK light: DTVLTQSPATLSLSPGERATLSCRASESVSTHMHWYQQKPGQAPRLLIYGASNLESGVPARFSGSGSGTDFTLTISSLEPEDFAVYFCQQSWNDPFTFGQGTKLEIKRGGSGGGGSGEFVLTQSPGTLSLSPGERATLSCERSSGDIGDSYVSWYQQKPGQAPRLVIYADDQRPSGIPDRFSGSGSGTDFTLTISRLEPEDFAVYYCQSYDINIDIVFGGGTKVEIKGTVAAPSVFIFPPSDEQLKSGTASVVCLLNNFYPREAKVQWKVDNALQSGNSQESVTEQDSKDSTYSLSSTLTLSKADYEKHKVYACEVTHQGLSSPVTKSFNRGEC | no binding (tested: DVD-Ig 31.25 to 4000 nM) | no binding (tested: DVD-Ig 31.25 to 4000 nM) | no binding (tested: DVD-Ig 31.25 to 4000 nM) | no binding (tested: DVD-Ig 31.25 to 4000 nM)
3 | no binding (tested: FcRn 2.7 to 6000 nM) | 6.2 | 4G8.3-SL-9E8.4(g) (PR-1572105), anti-VEGF-A/anti-PDGF-BB DVD-Ig, hu IgG1/k L234A L235A H435A (bispecific antibody, also called hu VEGF 4G8.3-SL-hu PDGF 9E8.4 (germline) [hu IgG1/k]; LALA H435A) heavy: EVQLVQSGSELKKPGASVKVSCKASGYTFTNYGMYWVRQAPGQGLEWMGWINTETGKPTYADDFKGRFVFSLDTSVSTAYLQISSLKAEDTAVYYCARTNYYYRSYIFYFDYWGQGTMVTVSSASTKGPEVTLRESGPALVKPTQTLTLTCTFSGFSLSTYGMGVGWIRQPPGKALEWLANIWWDDDKYYNPSLKNRLTISKDTSKNQVVLTMTNMDPVDTATYYCARIESIGTTYSFDYWGQGTMVTVSSASTKGPSVFPLAPSSKSTSGGTAALGCLVKDYFPEPVTVSWNSGALTSGVHTFPAVLQSSGLYSLSSVVTVPSSSLGTQTYICNVNHKPSNTKVDKKVEPKSCDKTHTCPPCPAPEAAGGPSVFLFPPKPKDTLMISRTPEVTCVVVDVSHEDPEVKFNWYVDGVEVHNAKTKPREEQYNSTYRVVSVLTVLHQDWLNGKEYKCKVSNKALPAPIEKTISKAKGQPREPQVYTLPPSREEMTKNQVSLTCLVKGFYPSDIAVEWESNGQPENNYKTTPPVLDSDGSFFLYSKLTVDKSRWQQGNVFSCSVMHEALHNAYTQKSLSLSPGK light: DTVLTQSPATLSLSPGERATLSCRASESVSTHMHWYQQKPGQAPRLLIYGASNLESGVPARFSGSGSGTDFTLTISSLEPEDFAVYFCQQSWNDPFTFGQGTKLEIKRTVAAPSVFIFPPEFVLTQSPGTLSLSPGERATLSCERSSGDIGDSYVSWYQQKPGQAPRLVIYADDQRPSGIPDRFSGSGSGTDFTLTISRLEPEDFAVYYCQSYDINIDIVFGGGTKVEIKRTVAAPSVFIFPPSDEQLKSGTASVVCLLNNFYPREAKVQWKVDNALQSGNSQESVTEQDSKDSTYSLSSTLTLSKADYEKHKVYACEVTHQGLSSPVTKSFNRGEC | no binding (tested: DVD-Ig 31.25 to 4000 nM) | no binding (tested: DVD-Ig 31.25 to 4000 nM) | no binding (tested: DVD-Ig 31.25 to 4000 nM) | no binding (tested: DVD-Ig 31.25 to 4000 nM)
